Measured values: a protein production outcome set (Wang et al. 2014)

Assay: label from the status in PepcDB records
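Also: failed if final PepcDB status was selected cloned or expressed and not failed if soluble or beyond.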

Question: For “MSLSEIKRKFDAVSGKYDEQRRKFIPCFDDFYGVSVSIASVDTENPDILDLGAGTGLLSAFLMEKYPEATFTLVDMSEKMLEIAKNRFRGNLKVKYIEADYSKYDFEEKYDMVVSALSIHHLEDEDKKELYKRSYSILKESGIFINADLVHGETAFIENLNKTIWRQYVENSGLTEEEIAAGYERSKLDKDIEMNQQLNWLKEAGFRDVSCIYKYYQFAVMFGRKTEGHHHHHH”, which protein production is on record?
Answer: not failed

Question: Which protein production does the source give for “MSLSEPAWSLHSRLKEDTIDIGDLPLSKVLVIKDANYPWLLLVPRRPDAVEIIDLDEVQQAQLMTEISRVSRALKEITKCDKLNIAALGNLVPQLHVHIIARRTGDAAWPRPVWGVMQPLAHDATEVQNFISALRRKIWLGEGHHHHHH” here?
Answer: not failed

Question: Which protein production does the source give for “MSLSFMIGYSWTQTEPGQVNHILDQFLSSMVREAGAVNYFVLPFPFSEDRSQIDIYRDLIRSGNVDGFVLSSINYNDPRVQFLLKQKFPFVAFGRSNPDWDFAWVDIDGTAGTRQAVEYLIGRGHRRIAILAWPEDSRVGNDRLQGYLEAMQTAQLPIETGYILRGEGTFEVGRAMTLHLLDLSPERRPTAIMTLNDTMAIGAMAAARERGLTIGTDLAIIGFDDAPMVQYLFPPLSSVRQPIAEAGRKCIELLVAIVEGREPEQKHILLQPSLIIRASEGLITITTDPNSSSVDKLAAALEHHHHHH” here?
Answer: not failed

Question: For “MSLSIVRIDAEDRWSDVVIYNNTLWYTGVPENLDADAFEQTANTLAQIDAVLEKQGSSKSRILDATIFLSDKADFAAMNKAWDAWVVAGHAPVRCTVQAGLMNPKYKVEIKIVAAVEGHHHHHH”, which protein production is on record?
Answer: not failed

Question: Which protein production does the source give for “MSLSLSHFRITRFQFARDRVIGDSQVRADDVNVAALELVSESGEVGLGFIQTLFNPLPDQQEIESVFEHEVWPSLKGNRAIALVHRVNRPRGGNQRAYSLPFHEAVQVALWDLAAKEAGLPLHVLLGSRRNRVKAYASGLDFHLDDDAFVSLFSHAASIGYSAFKIKVGHRDFDRDLRRLELLKTCVPAGSKVMIDPNEAWTSKEALTKLVAIREAGHDLLWVEDPILRHDHDGLRTLRHAVTWTQINSGEYLDLQGKRLLLEAHAADILNVHGQVTDVMRIGWLAAELGIPISIGNTFLEAGVHMAVALPEVEWLEYSFQNFDHLVEQPIEIRDGYAYAPDRPGHGLVLSEKARGEWSRPRRLARSELGAAPENPRLPAKEGHHHHHH” here?
Answer: not failed

Question: For “MSLSTAADLLRQGAACSVLYLTSVETESLTGPQAVARASSAALSCSPRPTPAVVHFKVSAQGITLTDNQRKLFFRRHYPVNSITFSSTDPQDRRWTNPDGTTSKIFGFVAKKPGSPWENVCHLFAELDPDQPAGAIVTFITKVMLGQRKEGHHHHHH”, which protein production is on record?
Answer: not failed

Question: For “MSLSTIRIGGAAVNQTPIDWENNVKNILDAIEEAKNANVEILCLPELCITGYGCEDLFLTDWVAETAIEYCFEIAASCTDITVSLGLPMRIAGITYNCVCLVENGIVKGFSAKQFLANEGVHYETRWFTAWPRNHTTTFLYNDVKYPFGDVLYNVKDARIGFEICEDAWRTDRVGIRHYEKGATLVLNPSASHFAFGKSAIRYDLVIGGSERFDCTYVYANLLGNEAGRMIYDGEVLIAHKGKLIQRNDRLSFKNVNLIYADIATDSAETPETVLTQDDLEKEFEFWEATSLGLFDYMRKSRSKGFVLSLSGGADSSACAIMVAEMIRKGLKELGLTAFLQKSNMETLFDLPALQHLPFEEQAKKITAVFLTTAYQSTRNSGDETYTSAKTLAESIGATFYNWSVDEEIEQYKATIENVIERPLTWEKDDITLQNIQARGRAPIIWMLTNVKQALLITTSNRSEGDVGYATMDGDTAGGIAPIAGVDKDFIRSWLRWAEKNRNQHGLHIVNKLAPTAELRPSEYTQTDERDLMPYDVLARIERKAIKERLSPVQVYTALLTEGPYTKNEFKYWVKKFFRLWSINQWKRERLAPSFHMDDFNIDPRSWYRFPILSSGFAKELNDLDQEGHHHHHH”, which protein production is on record?
Answer: not failed

Question: Which protein production does the source give for “MSLSWEIEELDREIGKIKKHSLILIHEEDASSRGKDILFYILSRKLKSDNLVGMFSISYPLQLIIRILSRFGVDVIKYLENHRLAIVDTFGSFHGIKATMPGVWYLEGMLSSETLPIKYAKAVEDHKKVWMDLNLFEGRELYGFAISMSGYLEVFTPEETLRYLETSAEVRYGHPAYKKYPRGTNFWLWEGVKDKRVLLSVYRRADYVLKTRSSLGENGIKRELLVIKTPKPIEELVRFEYEFKGNEPKLRREGHHHHHH” here?
Answer: not failed

Question: With “MSLTDEPKLLAEPREGVPNVIDTLPAFRDYCSELASSHGSLAADAERASGFRYGHEDWLVQFKRDGAGIGLLDPQALAAAGADWNDFNRAVGDAVWILHDSLQDLPGFDELGMEPQRLFDTEIAARLLGLKRFGLAAVTEHFLGLTLAKEHSAADWSYRPLPRDWRNYAALDVELLIELETKMRAELKRQGKMEWAQEEFDYALKEGLGPRKEHLIPWMHVSHITEVMRDRQALAIVRALWTRRDELAREYDIAPTLLLSDSSIIEVAKRKPHNAAQFRSIRSINERVRIHTDSEQDKMFERYAPIQRKIKPSMWKNIIQDALALPPSEWPDVDGGAARRHESQSASAPKSIRVWKERYPERLQVLNRVRKAVSQIAEDTRTPVEIVIKPQYLRNLCWTDEPRKRDVARFLSEQGARDWQVSLVAESVSRAIEGHHHHHH” as the sequence, how does the protein production read?
Answer: not failed

Question: For “MSLTGNAQAATIADPSTLVVDTVGPVLTIGLNRPKKRNALNDGLMAALKDCLTDIPDQIRAVVIHGIGDHFSAGLDLSELRERDATEGLVHSQTWHRVFDKIQYCRVPVIAALKGAVIGGGLELACAAHIRVAEASAYYALPEGSRGIFVGGGGSVRLPRLIGVARMADMMLTGRVYSAAEGVVHGFSQYLIENGSAYDKALELGNRVAQNAPLTNFAVLQALPMIAEANPQTGLLMESLMATVAQSDQEAKTRIRAFLDHKTAKVREGHHHHHH”, which protein production is on record?
Answer: not failed

Question: For “MSLTHVIWDMGETLNTVPNTRYDHHPLDTYPEVVLRKNAKETLEKVKQLGFKQAILSNTATSDTEVIKRVLTNFGIIDYFDFIYASNSELQPGKMEKPDKTIFDFTLNALQIDKTEAVMVGNTFESDIIGANRAGIHAIWLQNPEVCLQDERLPLVAPPFVIPVWDLADVPEALLLLKKISEGHHHHHH”, which protein production is on record?
Answer: not failed

Question: For “MSLTKIDAYAHILPAKYYQKMLSVEPNIPNMFPFIKIKTLMDLDERLTKWPDQNTKQVISLANISPEDFTDSKTSAELCQSANEELSNLVDQHPGKFAGAVAILPMNNIESACKVISSIKDDENLVGAQIFTRHLGKSIADKEFRPVLAQAAKLHVPLWMHPVFDARKPDNNLVFSWEYELSQAMLQLVQSDLFQDYPNLKILVHHAGAMVPFFSGRIDHILDEKHAQDFKKFYVDTAILGNTPALQLAIDYYGIDHVLFGTDAPFAVMPSGADQIITQAINDLTISDKDKQKIFHDNYYSLIKEGHHHHHH”, which protein production is on record?
Answer: not failed

Question: Which protein production does the source give for “MSLTKVSSLGYPRLGENREWKKLIEAYWAGKVSKNDLFAGAKELRLDFLKKQLNAGLDLIPVGDFSLYDHILDLSVQFNIIPKRFAKEPIDIDLYFAIARGNKENVASSMKKWFNTNYHYIVPEWSKQRPKLNNNRLLDLYLEAREVVGDKAKPVITGPITYVALSTGVEDFTAAVKSLLPLYKQVFTELVKAGASYIQVDEPIFVTDEGKDYLQAAKAVYAYFAKEVPDAKFIFQTYFEGLIDSQVLSQLPVDAFGLDFVYGLEENLEAIKTGAFKGKEIFAGVIDGRNIWSSDFVKTSALLETIEEQSAALTIQPSCSLLHVPVTTKNETDLDPVLRNGLAFADEKLTEVKRLAEHLDGREDPAYDLHIAHFDALQAADFRNVKLEDLSRVATKRPSDFAKRRDIQQEKLHLPLLPTTTIGSFPQSREIRRTRLAWKRGDISDAEYKQFIQAEIERWIRIQEDLDLDVLVHGEFERVDMVEFFGQKLAGFTTTKFGWVQSYGSRAVKPPIIYGDVQHLEPITVEETVYAQSLTDRPVKGMLTGPITITNWSFERTDIPRDQLFNQIGLAIKDEIKLLENAGIAIIQVDEAALREGLPLRKSKQKAYLDDAVHAFHIATSSVKDETQIHTHMCYSKFDEIIDAIRALDADVISIETSRSHGDIIESFETAVYPLGIGLGVYDIHSPRVPTKEEVVANIERPLRQLSPTQFWVNPDCGLKTRQEPETIAALKVLVAATKEVRQKLGNEGHHHHHH” here?
Answer: not failed

Question: Which protein production does the source give for “MSLTLRVLAPDQNVFDGSADEVILPSTTGQLGILPGHISLLTAIDVGVLRVRANGGWNSIALMGGFAEVDADEVTVLVNQAELGSTIDGNTAEADFQKATTVVDGLEGQPASPEKVKAQQQLNMARARMQASKSAD” here?
Answer: failed

Question: With “MSLTNHEQVLTDYLAAFIEELVRAGVKEAIISPGSRSTPLALMMAEHPILKIYVDVDERSAGFFALGLAKASKRPVVLLCTSGTAAANYFPAVAEANLSQIPLIVLTADRPHELRNVGAPQAMDQLHLYGSHVKDFTDMALPENSEEMLRYAKWHGSRAVDIAMKTPRGPVHLNFPLREPLVPILEPSPFTATGKKHHHVHIYYTHEVLDDSSIQKMVTECTGKKGVFVVGPIDKKELEQPMVDLAKKLGWPILADPLSGLRSYGALDEVVIDQYDAFLKEAEIMDKLTPEVVIRFGSMPVSKPLKNWLEQLSDIRFYVVDPGAAWKDPIKAVTDMIHCDERFLLDIMQQNMPDDAKDAAWLNGWTSYNKVAREIVLAEMANTTILEEGKIVAELRRLLPDKAGLFIGNSMPIRDVDTYFSQIDKKIKMLANRGANGIDGVVSSALGASVVFQPMFLLIGDLSFYHDMNGLLMAKKYKMNLTIVIVNNDGGGIFSFLPQANEPKYFESLFGTSTELDFRFAAAFYDADYHEAKSVDELEEAIDKASYHKGLDIIEVKTNRHENKANHQALEGHHHHHH” as the sequence, how does the protein production read?
Answer: not failed

Question: For “MSLTNSSKSFTKFMAASAVFTMGFLSVPTAGAEQTNQIANKPQAIQWHTNLTNERFTTIAHRGASGYAPEHTFQAYDKSHNELKASYIEIDLQRTKDGHLVAMHDETVNRTTNGHGKVEDYTLDELKQLDAGSWFNKKYPKYARASYKNAKVPTLDEILERYGPNANYYIETKSPDVYPGMEEQLLASLKKHHLLNNNKLKNGHVMIQSFSDESLKKIHRQNKHVPLVKLVDKGELQQFNDQRLKEIRSYAIGLGPDYTDLTEQNTHHLKDLGFIVHPYTVNEKADMLRLNKYGVDGVFTNFADKYKEVIKEGHHHHHH”, which protein production is on record?
Answer: not failed

Question: Which protein production does the source give for “MSLTRTQTYRATIESDIESYLKKAIPIRAPESVFEPMHHLTFAAPRTSASALCVAACELVGGDRSDAMAAAAAVHLMHVAAYTHENLPLTDGPMSKSEIQHKFDPNIELLTGDGIIPFGLELMARSMDPTRNNPDRILRAIIELTRVMGSEGIVEGQYHELGLNQLNDLELIEYVCKKKEGTLHACGAACGAILGGCDEDKIEKLRRFGLYVGTVQGLLGKNRSGFEGRIKELKELAVKELESFGGEKIELIRGVFELEHSLAGVEGHHHHHH” here?
Answer: not failed

Question: With “MSLTTRHTIGARLLLAFAFSTSLLTIVSLVAWGTWSRLDYQVAELLNQSVPKYNTSYVLETRSSEIRRRIQLIVSATSKVTLNQQYQRLQEDFTAIHAALASLPQNEQQAALQQGYTELRQTTQQINDLVSARIDVDRRLALFAEQLDWLHQDIGMELSPMRQELQWQLERGGAAQPQAQVMFQTINLIQTILDGETQAFLFVDELLKAKHLTQVDNGMRVLQYRLDELSRLSQPLFTQPSSIAYQQLLEEWRNVLRLEGDFQQSLRDRVVLTQKLESTSEQLQIQLDQQHTAIADLVANADALFVQVKGQTAQLVQEGNRVLLICFGLSIGLSLLLMYYFVHKRIVGRLHRLSESLDAIIHNDLSHPITVDGKDEIGALSEQLILYGKKVEEMERTNALSLINNTQASLITCDRYGQIESANPSAMATLRLESLAQPLTLWSCFAKHVQPKVGNULLLFDKKGNLIQKGAESLTLSLGNPEKPHYLRLYLRRYSQGLHDKIIVTITDVTDQEHANRLLEQRVKEKTQSLREKNRELQAEVEERQRAEAHLKKTQGELIQAAKMAVVGQTMTSLAHELNQPLSAMSAYLFSARLALEEAPQAQLATSLDHIENLTERMGKIVNSLRHFARKNSSDESLQPVRLNSVVEQALVLVQTKAKRQQIKLINTLPDDLMVMADALSLEQVLINLIVNGCDASTTFAQPWVKLIALGTEQGMQRIAVIDSGQGFEHEVVDKLFTPFTTTKEVGLGLGLSICQSLVEKMQGRIALASNLEKGAMVILELQQDEKYRTAD” as the sequence, how does the protein production read?
Answer: failed
